Measured values reported in patent US20250163163A1 (Chugai, published 2025).

T1: human IL-31R (IL-31 receptor) expressed on BaF cells (BaF/hIL-31R cells) (human, UniProt Q8NI17 20-732)
T1 sequence (looked up): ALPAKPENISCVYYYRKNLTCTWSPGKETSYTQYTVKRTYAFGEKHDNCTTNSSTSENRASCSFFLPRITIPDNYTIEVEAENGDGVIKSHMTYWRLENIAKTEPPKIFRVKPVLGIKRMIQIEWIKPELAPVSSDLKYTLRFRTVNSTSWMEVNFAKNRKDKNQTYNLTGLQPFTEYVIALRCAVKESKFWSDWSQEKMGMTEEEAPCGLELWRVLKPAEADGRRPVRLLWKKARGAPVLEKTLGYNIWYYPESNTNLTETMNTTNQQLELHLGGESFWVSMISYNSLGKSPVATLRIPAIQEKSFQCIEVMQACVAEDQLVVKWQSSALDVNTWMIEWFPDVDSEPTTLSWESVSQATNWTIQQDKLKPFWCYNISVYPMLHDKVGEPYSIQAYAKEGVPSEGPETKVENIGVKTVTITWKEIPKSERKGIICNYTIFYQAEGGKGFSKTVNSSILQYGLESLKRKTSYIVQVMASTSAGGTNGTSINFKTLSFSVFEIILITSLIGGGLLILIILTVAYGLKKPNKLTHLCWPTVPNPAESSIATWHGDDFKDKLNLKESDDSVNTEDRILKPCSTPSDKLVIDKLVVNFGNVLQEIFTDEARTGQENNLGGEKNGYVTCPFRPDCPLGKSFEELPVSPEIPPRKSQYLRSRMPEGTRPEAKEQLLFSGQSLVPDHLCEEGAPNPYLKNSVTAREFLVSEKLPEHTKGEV

B1: nemolizumab AE-HPLC fraction, peak b8 (Pre-Region 2), predominantly the succinimide form (Asu103 variant) (antibody, V domains shown)
VH: QVQLVQSGAEVKKPGASVKVSCKASGYTFTGYIMNWVRQAPGQGLEWMGLINPYNGGTDYNPQFQDRVTITADKSTSTAYMELSSLRSEDTAVYYCARDGYDDGPYTLETWGQGTLVTVSS
VL: DIQMTQSPSSLSASVGDRVTITCQASEDIYSFVAWYQQKPGKAPKLLIYNAQTEAQGVPSRFSGSGSGTDFTLTISSLQPEDFATYYCQHHYDSPLTFGGGTKVEIKR
modifications: Asp103 (Kabat numbering position 99) altered to a succinimide residue (Asu103) at a ratio of 54.0% on peptide basis; Asp99 (Kabat 95) to succinimide 2.7%
B2: nemolizumab AE-HPLC fraction, peak a6 (Post-Region) (antibody, V domains shown)
VH: B1 VH
VL: B1 VL
modifications: Deamidation at Asn55 in the CDRs of the heavy chain, 14.9%
B3: nemolizumab AE-HPLC fraction, peaks b2 + b3 (Pre-Region 1) (antibody, V domains shown)
VH: B1 VH
VL: B1 VL
modifications: Asu103 in HC; ratio not given
B4: nemolizumab AE-HPLC fraction, peak a4 (Post-Region) (antibody, V domains shown)
VH: B1 VH
VL: B1 VL
B5: nemolizumab AE-HPLC fraction, peak a5 (Post-Region) (antibody, V domains shown)
VH: B1 VH
VL: B1 VL
modifications: Deamidation at Asn55 in HC; ratio not given
B6: nemolizumab AE-HPLC fraction, peak b1 (Pre-Region 1), isoAsp form (antibody, V domains shown)
VH: B1 VH
VL: B1 VL
modifications: IsoAsp in CDR (Asp99/102/103) in HC, site not identified: two isoAsp residue-containing peptides at 11.6% and 2.7%; Asu99 1.1%, Asu102 0.2%, Asu103 4.7%
B7: nemolizumab AE-HPLC fraction, peaks b4 + b5 + b6 + b7 (Pre-Region 2) (antibody, V domains shown)
VH: B1 VH
VL: B1 VL
modifications: Asu103 in HC (succinimide at Asp103); ratio not given
B8: nemolizumab AE-HPLC fraction, peaks a2 + a3 (Post-Region) (antibody, V domains shown)
VH: B1 VH
VL: B1 VL
B9: nemolizumab AE-HPLC fraction, peak a1 (Post-Region) (antibody, V domains shown)
VH: B1 VH
VL: B1 VL
modifications: Deamidation at Asn384 in HC; ratio not given

Target: T1, human IL-31R (IL-31 receptor) expressed …
Test: cell-based or functional assay

Relative biological activity compared to CIM331 reference material (%); inhibition of IL-31-dependent proliferation of BaF/hIL-31R cells	Relative biological activity compared to main peak (%); inhibition of IL-31-dependent proliferation of BaF/hIL-31R cells	Binder
23%	21%	B1
94%	85%	B2
73%	66%	B3
90%	82%	B4
88%	79%	B5
45%	41%	B6
89%	80%	B7
110%	100%	B8
110%	100%	B9
